# Results taken from US7238668B1, “Inhibition of lymphocyte adherence with CS-1-peptides and fragments thereof” (Fred Hutchinson Cancer Research Center, priority 1989, dated 2007).
# Ends that are not written are not given here.
# B1: 58 kDa tryptic fragment of plasma fibronectin (ligand, human, UniProt P02751-10 1589-2125, looked up)
# chain: TAGPDQTEMTIEGLQPTVEYVVSVYAQNPSGESQPLVQTAVTTIPAPTDLKFTQVTPTSLSAQWTPPNVQLTGYRVRVTPKEKTGPMKEINLAPDSSSVVVSGLMVATKYEVSVYALKDTLTSRPAQGVVTTLENVSPPRRARVTDATETTITISWRTKTETITGFQVDAVPANGQTPIQRTIKPDVRSYTITGLQPGTDYKIYLYTLNDNARSSPVVIDASTAIDAPSNLRFLATTPNSLLVSWQPPRARITGYIIKYEKPGSPPREVVPRPRPGVTEATITGLEPGTEYTIYVIALKNNQKSEPLIGRKKTGQEALSQTTISWAPFQDTSEYIISCHPVGTDEEPLQFRVPGTSTSATLTGLTRGATYNVIVEALKDQQRHKVREEVVTVGNSVNEGLNQPTDDSCFDPYTVSHYAVGDEWERMSESGFKLLCQCLGFGSGHFRCDSSRWCHDNGVNYKIGEKWDRQGENGQMMSCTCLGNGKGEFKCDPHEATCYDDGKTYHVGEQWQKEYLGAICSCTCFGGQRGWRCDNCRR
# notes: domain: Hep II and Fib II (58 kDa tryptic fragment)
# B2: 38 kDa tryptic fragment of plasma fibronectin (ligand, human, UniProt P02751-8 1589-1968, looked up)
# chain: TAGPDQTEMTIEGLQPTVEYVVSVYAQNPSGESQPLVQTAVTTIPAPTDLKFTQVTPTSLSAQWTPPNVQLTGYRVRVTPKEKTGPMKEINLAPDSSSVVVSGLMVATKYEVSVYALKDTLTSRPAQGVVTTLENVSPPRRARVTDATETTITISWRTKTETITGFQVDAVPANGQTPIQRTIKPDVRSYTITGLQPGTDYKIYLYTLNDNARSSPVVIDASTAIDAPSNLRFLATTPNSLLVSWQPPRARITGYIIKYEKPGSPPREVVPRPRPGVTEATITGLEPGTEYTIYVIALKNNQKSEPLIGRKKTDELPQLVTLPHPNLHGPEILDVPSTVQKTPFVTHPGYDTGNGIQLPGTSGQQPSVGQQMIFEEHGFR
# notes: domain: Hep II and first 67 residues of IIICS (38 kDa tryptic fragment); also called CTCBD fragment
# B3: rsa-CS-1 (peptide)
# peptide: DELPQLVTLPHPNLHGPEILDVPST
# modifications: also: conjugated to SMCC-derivatized rabbit serum albumin
# notes: also called CS-1-rsa; CS-1 (RSA conjugate)
# Assays:
# [1] = test system: Ramos (B) lymphocyte adhesion to HUVE monolayers; assay: Endothelial cell adhesion assay, Ramos cells on HUVE monolayers; type: cell-based, human; conditions: Table XI
# Protocol: (§1) HUVEs were incubated with IL-1 β (1 ng/ml) or in some experiments with TNF α (10 ng/ml) for 6–24 hours. At the end of this incubation the HUVE monolayers were washed and used in the adhesion assay.
# (§2) Human umbilical vein endothelial cells (HUVEs) were cultured in 48 well plates as described (supra). To measure adherence of lymphocytes to HUVE monolayer cultures, lymphocytes were labeled with Na2 ^51CrO4 (50 μCi/ml) for 2–4 hours), washed, and then 10^5 lymphocytes were incubated with HUVE monolayers in the presence or absence of inhibitory antibodies or CS-1 derived peptides. The lymphocytes were allowed to adhere for 30 minutes at 37°. Non-adherent cells were subsequently removed by washing with PBS, and the adherent cells were dissolved in SDS/NaOH. Bound ^51Cr-cpm were quantitated in a gamma counter. In some experiments, endothelial cells were activated prior to the adhesion assay by incubating with IL-1 β (1 ng/ml) or […] (10 ng/ml) for 6–24 hours in defined CS-100 media (Cell Systems, Seattle, Wash.).
# Jurkat = assay: Inhibition of Jurkat cell adhesion to plasma fibronectin and its fragments; type: cell-based, human
# Protocol: (§3) Antibodies that would alter cell adhesion to purified plasma fibronectin, tryptic fragments and CS peptides were identified as previously described (Wayner and Carter, 1987). […] The plates were blocked with PBS supplemented with 10 mg/ml heat denatured BSA (HBSA). T lymphocyte or HT1080 cells were labeled with Na2 ^51CrO4 (50 μlCi/ml for 2–4 hr), washed, and 5×10^4 HT1080 or cultured T cells or […] were incubated with hybridoma culture supernatants (1:2 dilution in PBS supplemented with 1 mg/ml heat denatured BSA) or control myeloma cell culture supernatant for 15 minutes at room temperature. The cells were allowed to adhere to the protein-coated surfaces in the presence of the hybridoma supernatants for 15–30 minutes (HT1080) or 2–4 hours (lymphocytes) at 37° C. Non-adherent cells were removed by washing with PBS, and the adherent cells were dissolved in SDS/NaOH and bound ^51Cr-cpm were quantitated in a gamma counter.
# fibroblasts = assay: Inhibition of fibroblast adhesion to plasma fibronectin; type: cell-based
# Protocol: as §3
# [2] = test system: LAD (B) lymphocyte adhesion to HUVE monolayers; assay: Endothelial cell adhesion assay, LAD cells on HUVE monolayers; type: cell-based, human; conditions: Table XI
# Protocol: as §1, §2
# [3] = test system: T lymphocytes (Jurkat or Molt 4 cells); assay: T lymphocyte adhesion to plasma fibronectin, tryptic fragments and CS peptides; type: cell-based, human
# Protocol: as §3
# Human plasma fibronectin was a generous gift from Drs. Horowitz and R. Schulman (New York Blood Center, N.Y.). […] Two overlapping peptides spanning the initial 48 residues of the IIICS region of human fibronectin (CS-1 and CS-2) were synthesized and coupled to rabbit IgG as described (Humphries et al., 1986, and Humphries et al., 1987, J. Biol. Chem. 262:6886–6892).
# K562-1 cells = assay: Inhibition of K562 cell adhesion to plasma fibronectin and fragments; type: cell-based, human
# [4] = test system: Jurkat (T) lymphocyte adhesion to HUVE monolayers; assay: Endothelial cell adhesion assay, Jurkat cells on HUVE monolayers; type: cell-based, human; conditions: Table XI
# Protocol: as §1, §2
# integrin α5β1 [5] = target: T1, integrin α5β1 (human, UniProt P08648 42-1049; P05556 21-798); assay: adhesion of 51Cr-PBL to plasma fibronectin-coated plastic with hybridoma supernatant; SP2 control 100%
# T1 sequence (P08648 42-1049, chain 1 of 2): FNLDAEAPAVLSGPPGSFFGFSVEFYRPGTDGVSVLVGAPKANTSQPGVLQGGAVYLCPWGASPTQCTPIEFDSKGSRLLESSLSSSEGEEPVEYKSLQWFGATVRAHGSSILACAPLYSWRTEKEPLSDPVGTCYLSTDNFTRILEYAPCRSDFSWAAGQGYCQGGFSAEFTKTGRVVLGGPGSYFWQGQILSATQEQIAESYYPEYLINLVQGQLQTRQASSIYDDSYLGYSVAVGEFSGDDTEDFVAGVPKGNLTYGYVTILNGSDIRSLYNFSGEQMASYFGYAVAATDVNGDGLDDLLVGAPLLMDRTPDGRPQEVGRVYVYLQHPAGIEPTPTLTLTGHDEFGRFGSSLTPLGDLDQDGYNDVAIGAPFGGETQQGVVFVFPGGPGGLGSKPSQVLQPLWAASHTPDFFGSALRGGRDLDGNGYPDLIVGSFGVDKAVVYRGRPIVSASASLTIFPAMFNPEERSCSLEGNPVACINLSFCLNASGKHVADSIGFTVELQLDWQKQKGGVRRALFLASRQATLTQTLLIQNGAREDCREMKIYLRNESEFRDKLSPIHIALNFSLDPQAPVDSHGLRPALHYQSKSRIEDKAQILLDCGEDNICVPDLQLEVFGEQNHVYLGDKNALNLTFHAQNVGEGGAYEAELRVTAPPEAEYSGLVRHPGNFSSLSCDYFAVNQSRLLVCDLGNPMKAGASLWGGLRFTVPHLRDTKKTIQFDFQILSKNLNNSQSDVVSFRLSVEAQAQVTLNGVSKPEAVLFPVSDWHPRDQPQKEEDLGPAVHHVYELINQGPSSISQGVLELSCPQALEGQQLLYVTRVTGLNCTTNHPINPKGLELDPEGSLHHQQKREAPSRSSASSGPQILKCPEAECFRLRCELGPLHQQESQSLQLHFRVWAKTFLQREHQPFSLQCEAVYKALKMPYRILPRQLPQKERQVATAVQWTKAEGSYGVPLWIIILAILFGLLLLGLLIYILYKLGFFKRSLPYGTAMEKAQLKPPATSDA
# T1 sequence (P05556 21-798, chain 2 of 2): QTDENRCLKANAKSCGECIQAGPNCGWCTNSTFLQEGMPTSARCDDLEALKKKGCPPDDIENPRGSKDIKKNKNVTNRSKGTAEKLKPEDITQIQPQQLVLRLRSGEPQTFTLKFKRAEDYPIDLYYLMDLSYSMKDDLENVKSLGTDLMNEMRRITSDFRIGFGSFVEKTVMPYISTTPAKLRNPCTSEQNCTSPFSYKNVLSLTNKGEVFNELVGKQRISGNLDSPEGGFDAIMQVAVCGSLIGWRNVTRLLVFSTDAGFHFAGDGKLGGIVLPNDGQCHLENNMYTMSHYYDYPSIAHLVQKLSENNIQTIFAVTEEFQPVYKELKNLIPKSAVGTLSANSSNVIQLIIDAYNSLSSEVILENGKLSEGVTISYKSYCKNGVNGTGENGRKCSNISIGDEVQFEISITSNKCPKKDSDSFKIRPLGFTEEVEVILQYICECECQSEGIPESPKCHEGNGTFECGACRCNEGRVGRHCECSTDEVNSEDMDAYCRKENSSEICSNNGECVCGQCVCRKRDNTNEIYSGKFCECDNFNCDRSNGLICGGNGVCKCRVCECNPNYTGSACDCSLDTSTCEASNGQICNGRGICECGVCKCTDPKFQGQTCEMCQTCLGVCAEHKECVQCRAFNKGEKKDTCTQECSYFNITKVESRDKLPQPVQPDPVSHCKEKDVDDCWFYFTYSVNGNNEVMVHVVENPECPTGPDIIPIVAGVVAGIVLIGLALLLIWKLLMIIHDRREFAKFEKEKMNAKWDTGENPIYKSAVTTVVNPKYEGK
# integrin α5β1 [6] = target: T1, integrin α5β1; assay: adhesion of T lymphocytes to CS-2 (rabbit IgG conjugate)-coated plastic with P1D6; IgG control […]
# integrin α5β1 [7] = target: T1, integrin α5β1; assay: adhesion of 51Cr-Molt 4 cells to plasma fibronectin-coated plastic with hybridoma supernatant; SP2 control 100%
# integrin α5β1 [8] = target: T1, integrin α5β1; assay: adhesion of T lymphocytes to CS-1 (rabbit IgG conjugate)-coated plastic with P1D6; IgG control 44339
# integrin α5β1 [9] = target: T1, integrin α5β1; assay: cell-based or functional assay
# integrin α5β1 [10] = target: T1, integrin α5β1; assay: adhesion of T lymphocytes to 38 kDa-coated plastic with P1D6; IgG control 22680
# integrin α5β1 [11] = target: T1, integrin α5β1; assay: adhesion of 51Cr-Jurkat cells to plasma fibronectin-coated plastic with hybridoma supernatant; SP2 control 100%
# integrin α5β1 [12] = target: T1, integrin α5β1; assay: adhesion of 51Cr-HT1080 cells to plasma fibronectin-coated plastic with hybridoma supernatant; SP2 control 100%
# integrin α5β1 [13] = target: T1, integrin α5β1; assay: adhesion of T lymphocytes to 80 kDa-coated plastic with P1D6; IgG control 8580
# integrin receptor α4β1 [14] = target: T2, integrin receptor α4β1 (human, UniProt P13612 34-1032; P05556 21-798); assay: adhesion of 51Cr-PBL to plasma fibronectin-coated plastic with hybridoma supernatant; SP2 control 100%
# T2 sequence (P13612 34-1032, form in doubt, chain 1 of 2): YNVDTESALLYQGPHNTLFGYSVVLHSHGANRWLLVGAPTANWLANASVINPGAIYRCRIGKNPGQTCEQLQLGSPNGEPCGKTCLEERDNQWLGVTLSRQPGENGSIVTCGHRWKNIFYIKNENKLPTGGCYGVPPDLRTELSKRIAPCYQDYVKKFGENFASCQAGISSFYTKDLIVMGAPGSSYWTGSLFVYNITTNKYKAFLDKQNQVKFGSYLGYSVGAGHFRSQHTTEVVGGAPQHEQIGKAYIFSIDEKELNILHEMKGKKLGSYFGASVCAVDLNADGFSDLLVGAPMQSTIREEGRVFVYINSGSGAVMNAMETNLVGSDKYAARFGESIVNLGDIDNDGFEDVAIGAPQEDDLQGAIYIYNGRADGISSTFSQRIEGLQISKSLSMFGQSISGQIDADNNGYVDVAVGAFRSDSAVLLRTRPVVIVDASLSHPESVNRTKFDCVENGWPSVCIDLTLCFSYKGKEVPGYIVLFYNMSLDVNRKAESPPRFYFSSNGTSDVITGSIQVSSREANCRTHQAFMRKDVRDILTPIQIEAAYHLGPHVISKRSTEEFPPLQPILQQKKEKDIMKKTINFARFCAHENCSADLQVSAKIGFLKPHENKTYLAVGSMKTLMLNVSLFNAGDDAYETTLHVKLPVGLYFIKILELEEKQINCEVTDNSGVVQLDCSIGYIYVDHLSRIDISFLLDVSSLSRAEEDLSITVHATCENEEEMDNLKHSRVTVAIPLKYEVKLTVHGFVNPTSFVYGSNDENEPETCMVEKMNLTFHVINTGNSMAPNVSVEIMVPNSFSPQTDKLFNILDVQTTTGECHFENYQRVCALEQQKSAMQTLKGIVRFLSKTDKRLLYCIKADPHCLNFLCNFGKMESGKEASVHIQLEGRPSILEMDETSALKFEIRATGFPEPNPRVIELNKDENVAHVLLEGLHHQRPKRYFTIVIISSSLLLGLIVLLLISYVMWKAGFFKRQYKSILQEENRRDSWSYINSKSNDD
# T2 sequence (P05556 21-798, form in doubt, chain 2 of 2): as the sequence (P05556 21-798, chain 2 of 2) above
# integrin receptor α4β1 [15] = target: T2, integrin receptor α4β1; assay: adhesion of T lymphocytes to CS-2 (rabbit IgG conjugate)-coated plastic with P4C2; IgG control […]
# integrin receptor α4β1 [16] = target: T2, integrin receptor α4β1; assay: adhesion of 51Cr-Molt 4 cells to plasma fibronectin-coated plastic with hybridoma supernatant; SP2 control 100%
# integrin receptor α4β1 [17] = target: T2, integrin receptor α4β1; assay: cell-based or functional assay
# integrin receptor α4β1 [18] = target: T2, integrin receptor α4β1; assay: adhesion of T lymphocytes to 38 kDa-coated plastic with P4C2; IgG control 22680
# integrin receptor α4β1 [19] = target: T2, integrin receptor α4β1; assay: adhesion of 51Cr-Jurkat cells to plasma fibronectin-coated plastic with hybridoma supernatant; SP2 control 100%
# integrin receptor α4β1 [20] = target: T2, integrin receptor α4β1; assay: adhesion of T lymphocytes to CS-1 (rabbit IgG conjugate)-coated plastic with P4C2; IgG control 44339
# integrin receptor α4β1 [21] = target: T2, integrin receptor α4β1; assay: adhesion of 51Cr-HT1080 cells to plasma fibronectin-coated plastic with hybridoma supernatant; SP2 control 100%
# integrin receptor α4β1 [22] = target: T2, integrin receptor α4β1; assay: adhesion of T lymphocytes to 80 kDa-coated plastic with P4C2; IgG control 8580
# integrin receptor α4β1 [23] = target: T2, integrin receptor α4β1; assay: adhesion of Jurkat and Molt 4 cells to coated fragments
# integrin receptor α4β1 [24] = target: T2, integrin receptor α4β1; assay: T lymphocyte adhesion to coated fragments
# integrin receptor α4β1 [25] = target: T2, integrin receptor α4β1; assay: adhesion of 51Cr-Jurkat cells to surfaces coated with graded peptide-rsa conjugate; 50% of total input cpm, read from plot
# Protocol: Therefore, peptide-conjugates were prepared using rabbit serum albumin (rsa) as a carrier and the conjugates were tested for their ability to support cell adhesion. […] The adhesion experiments presented in Table XIV were conducted as follows:
# (No adhesion=no measurable adhesion above negative controls.)
molecule,measurement,setting,value
Arg-Gly-Asp-Ser (RGDS) [reference compound],Adhesion (cpm) +IL-1β,"[1]; IL-1β activated HUVE, no peptide 12936",28104 cpm
same,Adhesion (cpm) Basal,"[1]; basal HUVE, no peptide 2724",16920 cpm
same,Inhibition of Jurkat cell adhesion to intact fibronectin,Jurkat; 1 mg/ml,50%
same,Inhibition of Jurkat cell adhesion to the 80 kDa fragment,Jurkat; 1 mg/ml,100%
same,Effect on Jurkat cell adhesion to the 38 kDa fragment,Jurkat; up to 1 mg/ml,unaffected
same,Inhibition of adhesion to plasma fibronectin,fibroblasts,80–90%
same,Adhesion (cpm) +IL-1β,"[2]; IL-1β activated HUVE, no peptide 71408",102076 cpm
same,Adhesion (cpm) Basal,"[2]; basal HUVE, no peptide 44860",70652 cpm
same,Inhibition of adhesion to plasma fibronectin,[3]; Molt 4 or Jurkat cells,50–70%
same,Inhibition of adhesion to plasma fibronectin,K562-1 cells,100%
same,Adhesion (cpm) +IL-1β,"[4]; IL-1β activated HUVE, no peptide 314848",357616 cpm
same,Adhesion (cpm) Basal,"[4]; basal HUVE, no peptide 161092",298688 cpm
monoclonal antibody P1D6,Fibronectin Adhesion (% Control),integrin α5β1 [5],43 % Control
same,T lymphocyte adhesion (unit not given),integrin α5β1 [6],435
same,Fibronectin Adhesion (% Control),integrin α5β1 [7],18 % Control
same,T lymphocyte adhesion (unit not given),integrin α5β1 [8],42900
same,"Adhesion (cpm), Jurkat (T) on HUVE monolayers, +IL-1β; SP2 control 372159",integrin α5β1 [9],418000 cpm
same,"Adhesion (cpm), Jurkat (T) on HUVE monolayers, Basal; SP2 control 83924",integrin α5β1 [9],84000 cpm
same,"Adhesion (cpm), LAD (B) on HUVE monolayers, +IL-1β; SP2 control 104672",integrin α5β1 [9],114000 cpm
same,"Adhesion (cpm), LAD (B) on HUVE monolayers, Basal; SP2 control 19542",integrin α5β1 [9],15700 cpm
same,"Adhesion (cpm), Ramos (B) on HUVE monolayers, +IL-1β; SP2 control 12157",integrin α5β1 [9],11200 cpm
same,"Adhesion (cpm), Ramos (B) on HUVE monolayers, Basal; SP2 control 972",integrin α5β1 [9],808 cpm
same,T lymphocyte adhesion (unit not given),integrin α5β1 [10],24900
same,Fibronectin Adhesion (% Control),integrin α5β1 [11],22 % Control
same,Fibronectin Adhesion (% Control),integrin α5β1 [12],5 % Control
same,T lymphocyte adhesion (unit not given),integrin α5β1 [13],202
monoclonal antibody P4C2,Fibronectin Adhesion (% Control),integrin receptor α4β1 [14],10 % Control
same,T lymphocyte adhesion (unit not given),integrin receptor α4β1 [15],535
same,Fibronectin Adhesion (% Control),integrin receptor α4β1 [16],8 % Control
same,"Adhesion (cpm), Jurkat (T) on HUVE monolayers, +IL-1β; SP2 control 372159",integrin receptor α4β1 [17],137000 cpm
same,"Adhesion (cpm), Jurkat (T) on HUVE monolayers, Basal; SP2 control 83924",integrin receptor α4β1 [17],23100 cpm
same,"Adhesion (cpm), LAD (B) on HUVE monolayers, +IL-1β; SP2 control 104672",integrin receptor α4β1 [17],38100 cpm
same,"Adhesion (cpm), LAD (B) on HUVE monolayers, Basal; SP2 control 19542",integrin receptor α4β1 [17],6460 cpm
same,"Adhesion (cpm), Ramos (B) on HUVE monolayers, +IL-1β; SP2 control 12157",integrin receptor α4β1 [17],3690 cpm
same,"Adhesion (cpm), Ramos (B) on HUVE monolayers, Basal; SP2 control 972",integrin receptor α4β1 [17],456 cpm
same,T lymphocyte adhesion (unit not given),integrin receptor α4β1 [18],114
same,Fibronectin Adhesion (% Control),integrin receptor α4β1 [19],12 % Control
same,T lymphocyte adhesion (unit not given),integrin receptor α4β1 [20],841
same,Fibronectin Adhesion (% Control),integrin receptor α4β1 [21],93 % Control
same,T lymphocyte adhesion (unit not given),integrin receptor α4β1 [22],7150
B1,maximum cell attachment relative to the 38 kDa fragment,integrin receptor α4β1 [23],30%
B2,efficiency in mediating T lymphocyte adhesion relative to the 58 kDa fragment (molar basis),integrin receptor α4β1 [24],3 times
same,"Efficiency in mediating T lymphocyte adhesion, on a molar basis",[3]; compared with the 58 kDa fragment,three times more efficient than the 58 kDa fragment
B3,Molar Concentration required for 50% adhesion of Jurkat cells,integrin receptor α4β1 [25],115 nM
"LHGPEILDVPST (also: conjugated to SMCC-derivatized rabbit serum albumin, also called B12-rsa conjugate) [rsa-B12]",Molar Concentration required for 50% adhesion of Jurkat cells,integrin receptor α4β1 [25],492 nM
"EILDV (also: conjugated to SMCC-derivatized rabbit serum albumin, also called EILDV-RSA) [rsa-EILDV]",Molar Concentration required for 50% adhesion of Jurkat cells,integrin receptor α4β1 [25],1130 nM
